# Reference: IntAct's records for PubMed 17293598
# B1: Complement factor H (Homo sapiens), P08603 (parent)
# chain: MRLLAKIICLMLWAICVAEDCNELPPRRNTEILTGSWSDQTYPEGTQAIYKCRPGYRSLGNVIMVCRKGEWVALNPLRKCQKRPCGHPGDTPFGTFTLTGGNVFEYGVKAVYTCNEGYQLLGEINYRECDTDGWTNDIPICEVVKCLPVTAPENGKIVSSAMEPDREYHFGQAVRFVCNSGYKIEGDEEMHCSDDGFWSKEKPKCVEISCKSPDVINGSPISQKIIYKENERFQYKCNMGYEYSERGDAVCTESGWRPLPSCEEKSCDNPYIPNGDYSPLRIKHRTGDEITYQCRNGFYPATRGNTAKCTSTGWIPAPRCTLKPCDYPDIKHGGLYHENMRRPYFPVAVGKYYSYYCDEHFETPSGSYWDHIHCTQDGWSPAVPCLRKCYFPYLENGYNQNYGRKFVQGKSIDVACHPGYALPKAQTTVTCMENGWSPTPRCIRVKTCSKSSIDIENGFISESQYTYALKEKAKYQCKLGYVTADGETSGSITCGKDGWSAQPTCIKSCDIPVFMNARTKNDFTWFKLNDTLDYECHDGYESNTGSTTGSIVCGYNGWSDLPICYERECELPKIDVHLVPDRKKDQYKVGEVLKFSCKPGFTIVGPNSVQCYHFGLSPDLPICKEQVQSCGPPPELLNGNVKEKTKEEYGHSEVVEYYCNPRFLMKGPNKIQCVDGEWTTLPVCIVEESTCGDIPELEHGWAQLSSPPYYYGDSVEFNCSESFTMIGHRSITCIHGVWTQLPQCVAIDKLKKCKSSNLIILEEHLKNKKEFDHNSNIRYRCRGKEGWIHTVCINGRWDPEVNCSMAQIQLCPPPPQIPNSHNMTTTLNYRDGEKVSVLCQENYLIQEGEEITCKDGRWQSIPLCVEKIPCSQPPQIEHGTINSSRSSQESYAHGTKLSYTCEGGFRISEENETTCYMGKWSSPPQCEGLPCKSPPEISHGVVAHMSDSYQYGEEVTYKCFEGFGIDGPAIAKCLGEKWSHPPSCIKTDCLSLPSFENAIPMGEKKDVYKAGEQVTYTCATYYKMDGASNVTCINSRWTGRPTCRDTSCVNPPTVQNAYIVSRQMSKYPSGERVRYQCRSPYEMFGDEEVMCLNGNWTEPPQCKDSTGKCGPPPPIDNGDITSFPLSVYAPASSVEYQCQNLYQLEGNKRITCRNGQWSEPPKCLHPCVISREIMENYNIALRWTAKQKLYSRTGESVEFVCKRGYRLSSRSHTLRTTCWDGKLEYPTCAKR
# partner: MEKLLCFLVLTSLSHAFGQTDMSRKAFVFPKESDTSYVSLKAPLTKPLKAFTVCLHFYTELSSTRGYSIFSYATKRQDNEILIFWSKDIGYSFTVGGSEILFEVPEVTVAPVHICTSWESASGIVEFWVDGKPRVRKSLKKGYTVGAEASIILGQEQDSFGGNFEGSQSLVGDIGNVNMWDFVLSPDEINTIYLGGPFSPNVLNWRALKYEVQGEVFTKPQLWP
# B2: Complement factor H (Homo sapiens), P08603 (parent)
# chain: B1 chain
# partner: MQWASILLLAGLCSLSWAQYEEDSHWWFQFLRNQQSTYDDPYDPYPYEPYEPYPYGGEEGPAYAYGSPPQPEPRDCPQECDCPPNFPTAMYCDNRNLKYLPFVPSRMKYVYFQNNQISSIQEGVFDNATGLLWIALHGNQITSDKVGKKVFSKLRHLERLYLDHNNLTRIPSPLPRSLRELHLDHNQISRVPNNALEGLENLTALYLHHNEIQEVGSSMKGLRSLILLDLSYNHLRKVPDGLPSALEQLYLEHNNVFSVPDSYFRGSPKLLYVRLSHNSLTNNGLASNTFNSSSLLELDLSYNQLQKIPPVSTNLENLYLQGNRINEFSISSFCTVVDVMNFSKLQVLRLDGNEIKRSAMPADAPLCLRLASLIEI
# Variants of: B1
# Details: with crp_human CRP
row,effect of a mutation on the interaction,Variant
1,decreasing interaction strength,Y402H

# Variants of: B2
# Details: with fmod_bovin FMOD
row,effect of a mutation on the interaction,Variant
1,decreasing interaction strength,Y402H
